The record followed here is the nanobody polyreactivity screen of Harvey et al. (2022).

The data set is described as follows: yeast display, Sf9 membrane polyspecificity reagent, FACS + sequencing; frameworks hold sequencing errors. Summed up:
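Using colony PCR, genes from sorted yeast display clones were amplified, then sequenced on MiSeq at 2 × 250 and filtered by CDR length. The clones had been stained with 10% biotinylated, detergent-solubilized Sf9 membrane reagent for 1 hour at 4 °C and sorted by FACS into low and high (top ~1%) gates on anti-HA and streptavidin fluorescence. Polyreactivity labels come from the gate of origin.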
“QVQLVESGGGLVLAGGSLRLSCAASGFTFEKSVMGWYRQAPGNEREFVAAITRSGGRTYYADSVKGRFTISRDNAKNTVYLQMNSLKPEDTAVYFCAAAFSRSDTGGGSWGQGTQVTVSS”: the “polyreactivity (PSR sort gate)” value is “high polyreactivity”.

Take “QVQLVESGGGLVLAGGSLRLSCAASGITFRNYAMGWYRQAPGKEMEFVATISRRAGSTYYADSVKGRFTISRDNAKNTVYLQMNSLKPEDTAVYYCVTYRNWWYDYWGQGTQVTVSS”: the “polyreactivity (PSR sort gate)” value is recorded as “high polyreactivity”.

Take “QVQLVESGGGLVLAGGSLRLSCAASGLTFEYNAMGWYRQAPGKEGELVASISSGGGTNYADSVKGRFTISRDNAKHTVYLQMNSLKPEDTAVYYCATDNYDWSSWAFRGYWYDYWGQGTQVTVSS”: the “polyreactivity (PSR sort gate)” value is reported as “low polyreactivity”.

Turning to “QVQLVESGGGLVLAGGSLRLSCAASGRIFYQNAMGWYRQAPGKERELVAGITRGGSTYYADSVKGRFTISRDNAKNTVYLQMNSLKPEETAVYYCAVAFWRTKWYDYWGQGTQVTVSS”, the “polyreactivity (PSR sort gate)” value was “low polyreactivity”.

On to “QVQLVESGGGLVLAGGSLRLSCAASGRTFKKYAMGWYRQAPGKVRELVAAITSGGSTYYADSVKGRFTISRDNAKNTVYLQMNSLKPEDTAVYYCAAASSQHGNTYYYWGQATQVTVSS”, for which the “polyreactivity (PSR sort gate)” value is “high polyreactivity”.

On to “QVQLVESGGGLVLAGGSLRLSCAASGSIFIHYAMGWYRQARGKERELVAAITGDGNTTYADSVKGRFTISRDNAQNTVNLPINSLKPEDTAVYSCAVTIVDYVWAFDYWGQGTQVNVSS”, for which the “polyreactivity (PSR sort gate)” value was “low polyreactivity”.

In the case of “QVQLVESGGGLVLAGGSLRLSCAASGSIFNVYAMGWYRQAPGKERELVASITRRRTNYADSVKGRFTISRDNAKNTVYLQMNSLKPEDTAVYYCAATTYVRQYATYDYWGQGTQVTVSS”, the “polyreactivity (PSR sort gate)” value was “high polyreactivity”.

For the sequence “QVQLVESGGGLVLAGGSLRLSCAASGSIFWVNAMGWYRQAPGKERELVAAINYSDGSTSYADSVKGRFTISRDIAKNTVYLQMNSLKPEDTAVYYCNAESFELMYYWGQGTQVTVSS”, the “polyreactivity (PSR sort gate)” value is recorded as “low polyreactivity”.

“QVQLVESGGGLVLAGGSLRLSCAASGSILGTYAMGWYRQAPGKERELVARISRGGSTNYADSVKGRFTISRDNAKNTVYLQMNSLKPEDTAVYYCAKRLYLPESWRYYYWGQGTQVTVSS”: the “polyreactivity (PSR sort gate)” value is on record as “high polyreactivity”.

With “QVQLVESGGGLVLAGGSLRLSCAASGSTFGGYAMGWYRQATGKERELVAAISGSGVRTYYADSVKGRFTISRDNAKNTVYLQMNSRKPEDTAVYYCAKRVRYPGDRYYYWGQGTQVTVSS”, the “polyreactivity (PSR sort gate)” value is “high polyreactivity”.

Regarding “QVQLVESGGGLVLEGGSLRLSCPASGRIFTWNAMGWYRHAPGKERELVASISRSGTSTYYADSVKGRFTISRDNAKNTVYLQMNSLKPEDTAVYYCAAKRYGYKMYYWGQGTQVTVSS”, the “polyreactivity (PSR sort gate)” value is recorded as “high polyreactivity”.

As to “QVQLVESGGGLVLPGGSLRLSCAASGITFTYNAMGWYRQAPGQERELVAAISYSGGSTYYADSVKGRFTISRDNAKNTVYLQMNSLTPEDTAVYYCARRRLLYSGGKSGYYGYYYWGQGTQVNVSS”, the “polyreactivity (PSR sort gate)” value is reported as “high polyreactivity”.

As for “QVQLVESGGGLVLPGGSLRLSCAASGSTLYPYAMGWYRQAPGKERELVAAITYGGTSTYYADSVKGRFTISRDNAKNTVYLQMNSQKPEDTALYYCAARGGTTIRYDYWGQGTQVTVSS”, the “polyreactivity (PSR sort gate)” value is reported as “high polyreactivity”.

Take “QVQLVESGGGLVPAGGSLRLSCAASGFTFPAYTRGWYRPAPGKERELVAAITSSGGNTYYADSVKGRFTISRDNAKNTVYLQMNSLKPEDTAVYYCNADASSSPYTDRQYIGADDSWGQGTQVTVSS”: the “polyreactivity (PSR sort gate)” value is “low polyreactivity”.

In the case of “QVQLVESGGGLVPAGGSLRLSCAASGFTLYRYVMGWYRQAPGKERELVAAITRGGNTNYADSVKGRFTISRDNAKKTVYLQKNSLKPEDTAVYDCARRYRDYGRYGYWGQGTQVTVSS”, the “polyreactivity (PSR sort gate)” value is “high polyreactivity”.

Consider “QVQLVESGGGLVPAGGSLRLSCAASGRTFFPYAMAWYRQAPGKEREFVAAITWSGGSTTYADSVKGRFTISRDNAKNTVYLQMNSLKPEDTAVYYCNAGRRRSYSYDYWGQGTQVTVSS”, for which the “polyreactivity (PSR sort gate)” value is “low polyreactivity”.

For the sequence “QVQLVESGGGLVPAGGSLRLSCAASGRTFPYYDMGWYRQAPGKERELVAAITSGGTTNYADSVKGRFTISRDNAKNTVYLQMNSLKPEDTAVYYCAAGSPWYYFSSYGYWGQGTQVTVSS”, the “polyreactivity (PSR sort gate)” value is reported as “low polyreactivity”.

For the sequence “QVQLVESGGGLVPAGGSLRLSCAASGRTFWIYAMGWYRQAPGKERELVASIRWSTGNTNYADSVKGRFTISRDNAKNTVYLQMNSLLPEDTAVYYCNARRRWRGGPTYIYWGQGTQVTVSS”, the “polyreactivity (PSR sort gate)” value was “high polyreactivity”.

Consider “QVQLVESGGGLVPAGGSLRLSCAASGRTFYRYARGWYRKAHGKERELVASITRDGRTNYADSVKGSFTISRDNAKNTVYLQMNSLKPEDTAFYYCNAKLKITHSSSDYWGQGTQVTVSS”, for which the “polyreactivity (PSR sort gate)” value is on record as “high polyreactivity”.

As for “QVQLVESGGGLVPAGGSLRLSCAASGSIFEGNAMGWYRQAPGKERELVAAISTTGGITYYADSVKGRFTISRDNAKNTVYLQMNSLKPEETAVYYCAADPSQPRIDSSNYDYWGQGTQVTVSS”, the “polyreactivity (PSR sort gate)” value is on record as “low polyreactivity”.

On to “QVQLVESGGGLVPAGGSLRLSCAASGSTFIAYTRGWYRKAPGKERELVAAISGTGGTTYADSVKGRFTISRDNAKNTVYLQMNSLKPEDTAVYYCAAQYRYTYWGQATQVTVSS”, for which the “polyreactivity (PSR sort gate)” value was “low polyreactivity”.

For the sequence “QVQLVESGGGLVPAGGSLRLSCAASGYIFDYNAMGWYRQAPGKERELVAAITFRDGSTYADSVKGRFTISRDNAKNTVYLQMNSLKPEDTAVYYCNRRSQVHSHSKHDYWGQGTQVTVSS”, the “polyreactivity (PSR sort gate)” value is “low polyreactivity”.

Take “QVQLVESGGGLVPAGGSLRLSSAASGRIFVRNAMGWYRQAPGKERELVAAITRTGASTYYADSVKGRFTISRDNEKNTVYLQMNSLKPEDTAVYFFAAVWGWPYWVYRYDYWGQGTQVTVSS”: the “polyreactivity (PSR sort gate)” value is recorded as “high polyreactivity”.

Consider “QVQLVESGGGLVPAGGSLRLSWAASGRIFPRNTMGWYRQAPGKERELVAAISVSGGSTYYADSVKGRFTISRDNAKNTVYLQMNSLKPEDTAVYYSAARSARLEYYYWGQGTQVTVSS”, for which the “polyreactivity (PSR sort gate)” value is on record as “high polyreactivity”.

For the sequence “QVQLVESGGGLVQAAGSLRLSCAASGGTFWFYDMGWYRQAPGKERELVAAINSDGSTYYADSVKGRFTISRDNAKNTVYLQMNSLKPEDTAVYYCAVDQTYVGEGLSEVDVGYWGQGTQVTVSS”, the “polyreactivity (PSR sort gate)” value is listed as “low polyreactivity”.

As for “QVQLVESGGGLVQAAGSLRLSCAASGITFVTYDRGWYRQAPGKEWELVAAISRSGVRTYYADSVKWRFTISRDNAKNTVYLQMNSLKPEDTAVYYCAAERKNKYDYWGLGTQVTVSS”, the “polyreactivity (PSR sort gate)” value is reported as “high polyreactivity”.

Regarding “QVQLVESGGGLVQAAGSLRLSCAASGNTFRWYVMGWYRQAPGKERELVAAITSSGSNTYYADSVKGRFTISRDNAKNTVYLQMNSLKPEDTAVYYCAARNYGPYDYWGQGTQVTVSS”, the “polyreactivity (PSR sort gate)” value is “low polyreactivity”.

With “QVQLVESGGGLVQAAGSLRLSCAASGRTFGQYVMGGSRQAPGKERELVAAISGIGGSTYYADSVKGRFTISRDNAKNTVYLQMNSLIPDDTAVYYCAVELYWYPGYDYWGQGTQVTVSS”, the “polyreactivity (PSR sort gate)” value is reported as “low polyreactivity”.

Take “QVQLVESGGGLVQAAGSLRLSCAASGSIFGPNAMGWYRQAPGKERELVASITLSGGSTYYADSVKGRFTISRDNAKNNVYLQMNSLKPVDTAVYYCNADLLPADAPLWVTGGDYWGQGTQVTVSS”: the “polyreactivity (PSR sort gate)” value was “low polyreactivity”.

In the case of “QVQLVESGGGLVQAAGSLRLSCAASGSIFVRNAMGWYRQAPGKEREFVAAISWRGGTYYADSVKGRFTISRDNAKNTVYLQMNSLKPEDSAVYYCAARLYPTPGNGALGKTAWVYYWGQGTQVTVSS”, the “polyreactivity (PSR sort gate)” value was “low polyreactivity”.

On to “QVQLVESGGGLVQAAGSLRLSCAASGSIFYNYAMGWYRQAPGKERELVAAITSGGITYYADSVKGRFTISRDNAKNTVYLQMNSLKPEYTAVYYCAAESLTGYGHYDYWGQGTQVTVSS”, for which the “polyreactivity (PSR sort gate)” value was “low polyreactivity”.

As to “QVQLVESGGGLVQAAGSLRLSFAASGGIFSYYVMGWYRQAPGKEREFVASITQRGRTYYADSVKGRFTISRDNAKNTVYLQMNSLKPEDTAVYYCAAGIYAFRRHREEYDYWGQGTQVTVSS”, the “polyreactivity (PSR sort gate)” value is listed as “high polyreactivity”.

On to “QVQLVESGGGLVQAAGSLRLSYAASGSTFVYNGMGSYRQAPAKERELVATISSTGSTNYADSVKGRFTISRDNAKNTVYLQMNSLKPEDTAVYYCATEYITYRAYDYWGQGTQVTVSS”, for which the “polyreactivity (PSR sort gate)” value is “low polyreactivity”.

As for “QVQLVESGGGLVQAGAILRLSCAASGYIFVSYYLGWYRQAPGKEREVVAAISWRGGSTFYADSVKGRFTISRDNAKNTVYLQMNSLKPEDTAVFYCAVDDWLDWLFADFGYWGQGTQVTVSS”, the “polyreactivity (PSR sort gate)” value is on record as “low polyreactivity”.

With “QVQLVESGGGLVQAGASLRLSCAASGFIFGGNAMGWYRQAPGKERELVAAISTTGGRTYYADSVKGRFTISRDNAKNTVYLQMNSRKPEDTAVYYCNAGYDSYCRYYWYWYSFNYWGQGTQVNVSS”, the “polyreactivity (PSR sort gate)” value is listed as “high polyreactivity”.

Regarding “QVQLVESGGGLVQAGASLRLSCAASGFNFDTNTIGWYRQAPGKERELVAVITRRGGRTYDADSVKGRFTISRDNAKNRVYLQMNSLKPVDTAVYYFNSVSYGQYGWGEGTQVTVSS”, the “polyreactivity (PSR sort gate)” value is given as “high polyreactivity”.

On to “QVQLVESGGGLVQAGASLRLSCAASGFTFTPYAMGWYRQAPGKERELVAGITSGVGRKYADSVKGRFTISRDNAKNTVYLQMNSLKPEDTAVYFCAARYDHWGQGTQVTVSS”, for which the “polyreactivity (PSR sort gate)” value is listed as “high polyreactivity”.

For “QVQLVESGGGLVQAGASLRLSCAASGNIFGLYAMGWYRPAPGKERELVAAISDGVSTNYADSVKGRFTISRDNAKITVYLQMNSLKPEDTAVYYCAADQEGYGNWDSEYDYWGQVTQVTVSS”, the “polyreactivity (PSR sort gate)” value is on record as “low polyreactivity”.

Take “QVQLVESGGGLVQAGASLRLSCAASGNILVGNDMGWYRQAPWKERELVAAISSGDTTSYADSVKGRFTISRDNAKNTVYLQMNSLKPEDTAVYYCAVDRSLSPFAYDYWGQGTQVTVSS”: the “polyreactivity (PSR sort gate)” value is on record as “low polyreactivity”.

Take “QVQLVESGGGLVQAGASLRLSCAASGRIFRYNAMGWYRQAPGKERELVAAISSGGSRNYADSVKGRFTTSRDNSKNTVYLQMNSLKPEDTAVYYCNAESVHRYPGWGYDYWGHGTQVTVSS”: the “polyreactivity (PSR sort gate)” value is recorded as “low polyreactivity”.

On to “QVQLVESGGGLVQAGASLRLSCAASGRNFHTYGMGWYRQAPGKESELVAAITWTGGSTYYADSVKGRFTISRDNAKNTVYLQMNSLKPEDTAVYYCAADYPRDIIGSMDYWGQGTQVSVSS”, for which the “polyreactivity (PSR sort gate)” value is recorded as “low polyreactivity”.
